Data reported in patent US20160168250A1 (Genentech, published 2016).
One block for each binder: values may come before it.

How the values were obtained:
[1] = target: T1, His-tagged IgD2-D3 of human FGFR3-IIIb (human, UniProt P22607-2 143-374, limits assumed); assay: BIAcore
T1 construct: domain: IgD2-D3; also called FGFR3-IIIb-His protein; Human FGFR3 ECD IIIb; not shown: His tag
T1 sequence (looked up): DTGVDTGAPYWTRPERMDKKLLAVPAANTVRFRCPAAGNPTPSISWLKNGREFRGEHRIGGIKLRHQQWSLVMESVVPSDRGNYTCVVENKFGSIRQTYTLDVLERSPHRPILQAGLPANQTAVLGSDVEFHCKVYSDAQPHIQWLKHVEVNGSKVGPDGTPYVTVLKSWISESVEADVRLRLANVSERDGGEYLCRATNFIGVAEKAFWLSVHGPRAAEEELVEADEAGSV

FGFR3 on RT112 cells = target: T2, FGFR3 on RT112 cells (human, UniProt P22607-2); assay: Scatchard analysis: radioiodinated (125I) R3Mab on RT112 cells in suspension with unlabeled antibody, 2 h at room temperature; mean of two binding experiments
T2 construct: full length, on cells; also called WT FGFR3
Experimental: (§1) FIGS. 23A and 23B: Cell surface expression levels of FGFR3 in myeloma and bladder cancer cells. (FIG. 23A) Cell surface FGFR3 expression in myeloma cells and bladder cancer cells assessed by FACS analysis. Cells were stained with phycoerythin-conjugated mouse mAb against human FGFR3 (FAB766P, R&D Systems) or phycoerythin-conjugated isotype control mouse IgG1(BD Pharmingen). (FIG. 23B) Scatchard analysis of FGFR3 density in myeloma cells and bladder cancer cells. […] After incubation at RT for 2 hours, cells were pelleted by centrifugation and washed twice. Specifically bound ¹²⁵I was determined.

FGFR3 on KMS11 cells = target: T3, FGFR3 on KMS11 cells (human, UniProt P22607); assay: Scatchard analysis: radioiodinated (125I) R3Mab on KMS11 cells in suspension with unlabeled antibody, 2 h at room temperature; mean of two binding experiments
T3 construct: full length, on cells; also called FGFR3 Y373C
Experimental: as §1

FGFR3 on OPM2 cells = target: T4, FGFR3 on OPM2 cells (human, UniProt P22607); assay: Scatchard analysis: radioiodinated (125I) R3Mab on OPM2 cells in suspension with unlabeled antibody, 2 h at room temperature; mean of two binding experiments
T4 construct: full length, on cells; also called FGFR3 K650E
Experimental: as §1

[2] = target: T5, human FGFR3-IIIb ECD-human Fc chimeric protein (human, UniProt P22607-2 23-377); assay: ELISA: blocking of FGF9 binding to captured FGFR3-IIIb-Fc
T5 construct: extracellular domain; also called FGFR3-Fc chimeric protein (IIIb); not shown: human Fc
T5 sequence (looked up): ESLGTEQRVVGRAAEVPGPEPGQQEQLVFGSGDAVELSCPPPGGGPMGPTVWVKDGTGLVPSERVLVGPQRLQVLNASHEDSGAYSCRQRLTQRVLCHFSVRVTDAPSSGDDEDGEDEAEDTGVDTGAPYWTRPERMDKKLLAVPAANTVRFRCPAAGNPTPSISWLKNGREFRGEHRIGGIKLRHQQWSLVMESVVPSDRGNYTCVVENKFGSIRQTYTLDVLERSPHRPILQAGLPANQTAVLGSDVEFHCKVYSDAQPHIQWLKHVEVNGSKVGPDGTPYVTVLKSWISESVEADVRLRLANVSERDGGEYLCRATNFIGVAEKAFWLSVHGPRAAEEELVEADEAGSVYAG
Experimental: (§2) Specific binding was detected using an anti-human Fab antibody. […] Error bars represent standard error of the mean (SEM) and are sometimes smaller than symbols.
(§3) To test the effect of antibodies to FGFR3 on FGF/FGFR3 interaction, FGFR3-Fc chimeric proteins were captured on Maxisorp plate coated with anti-human immunoglobulin Fcγ fragment-specific antibody (Jackson Immunoresearch, West Grove, Pa.). After wash, increasing amount of FGFR3 antibody was added to the plate and incubated for 30 minutes.

FGFR3 on UMUC-14 cells = target: T6, FGFR3 on UMUC-14 cells (human, UniProt P22607-2); assay: Scatchard analysis: radioiodinated (125I) R3Mab on UMUC-14 cells in suspension with unlabeled antibody, 2 h at room temperature; mean of two binding experiments
T6 construct: full length, on cells; Same protein as r1, here on intact cells and not in lysates; also called FGFR3^S249C on cells
Experimental: as §1

[3] = target: T1, His-tagged IgD2-D3 of human FGFR3-IIIb; assay: BIAcore; R3Mab on CM5 chip, FGFR3-His injected
Experimental: For kinetic measurement, two-fold serial dilutions of FGFR3-IIIb or IIIc-His protein (starting from 67 nM) were injected in PBST buffer at 25° C. with a flow rate of 30 μl/minute. Association rates (Kon, per mol/s) and dissociation rates (Koff, per s) were calculated using a simple one-one Langmuir binding model (BIAcore Evaluation Software version 3.2). The equilibrium dissociation constant (Kd, per mol) was calculated as the ratio of Koff/Kon.

[4] = target: T5, human FGFR3-IIIb ECD-human Fc chimeric …; assay: direct ELISA: FGFR ECD-human Fc chimeric protein coated on the plate, R3Mab titrated, detection with HRP anti-human Fab
Description: as §2
(§4) cDNAs encoding the extracellular domains (ECD) of human FGFR1-IIIb, IIIc, FGFR2-IIIb and IIIc, FGFR3-IIIb and IIIc, and FGFR4 were cloned into pRK-based vector to generate human FGFR-human Fc chimeric proteins. The recombinant proteins were produced by transiently transfecting Chinese hamster ovary (CHO) cells and purified via protein A affinity chromatography. To test binding of antibodies to human FGFRs, Maxisorp 96-well plates (Nunc) were coated overnight at 4° C. with 50 μl of 2 μg/ml of FGFR ECD-human Fc chimeric proteins. After blocking with phosphate-buffered saline (PBS)/3% BSA, FGFR3 antibody was added and incubated at RT for 2 hours. Specifically bound FGFR3 antibody was detected using an HRP-conjugated anti-human Fab and the TMB peroxidase colorigenic substrate (KPL, Gaithersburg, Md.).

[5] = target: T7, human FGFR4 ECD-human Fc chimeric protein (human, UniProt P22455 22-369); assay: as above
T7 construct: extracellular domain; not shown: human Fc
Description: as §2, §4

[6] = target: T5, human FGFR3-IIIb ECD-human Fc chimeric …; assay: ELISA: blocking of FGF1 binding to captured FGFR3-IIIb-Fc
Experimental: as §2, §3

- Kd [1]: 0.19 nM
B1: anti-FGFR3 antibody clone 184.6.58 (antibody, V domains shown)
VH: EVQLVESGGGLVQPGGSLRLSCAASGFTFTSTGISWVRQAPGKGLEWVGRIYPTNGSTNYADSVKGRFTISADTSKNTAYLQMNSLRAEDTAVYYCARTYGIYDLYVDYTEYVMDYWGQGTLVTVSS
VL: DIQMTQSPSSLSASVGDRVTITCRASQDVDISLAWYQQKPGKAPKLLIYSASSLASGVPSRFSGSGSGTDFTLTISSLQPEDFATYYCQQGAGNPYTFGQGTKVEIK

- Kd (FGFR3 on RT112 cells): 0.16 nM
- Kd (FGFR3 on KMS11 cells): 0.35 nM
- Kd (FGFR3 on OPM2 cells): 0.64 nM
- IC50 [2]: 1.1 nM
- Kd (FGFR3 on UMUC-14 cells): 0.34 nM
- Kd [3]: 0.111 nM
- koff [3]: 0.0002 s⁻¹
- kon [3]: 1.8e+06 M⁻¹ s⁻¹
- EC50 (read off the curve) [4]: ~0.3 nM
- binding result [5]: no binding (tested: about 60 nM)
- IC50 [6]: 0.3 nM
B2: anti-FGFR3 antibody clone 184.6.1N54S (antibody, V domains shown)
VH: EVQLVESGGGLVQPGGSLRLSCAASGFTFTSTGISWVRQAPGKGLEWVGRIYPTSGSTNYADSVKGRFTISADTSKNTAYLQMNSLRAEDTAVYYCARARTYGIYDLYVDYTEYVMDYWGQGTLV
VL: DIQMTQSPSSLSASVGDRVTITCRASQDVDTSLAWYQQKPGKAPKLLIYSASFLYSGVPSRFSGSGSGTDFTLTISSLQPEDFATYYCQQSTGHPQTFGQGTKVEIKR
notes: also called R3Mab; R3 Mab
